# Assay results taken from US20190225686A1 (Daiichi Sankyo, published 2019).
# Where a chain is given by its changes, count along the chain named.
# B1: rat anti-GPR20 antibody 04-079 (antibody, rat IgG2b, V domains shown)
# VH: QVQLQQSGAELAKPGSSVKISCKASGYTFTSYYITWIKQTTGQGLKYIGYINPGSGHTNYNEKFKGKATLTVDKSSSTAFMQLSSLTPDDSAVYYCARGAGGFLRIISKFDYWGQGVMVTVSS
# VL: DTVLTQSPALAVSLGQRVTISCRASKSVSTYMHWYQQRSGQQPKLLIYSASNLESGVPSRFSGSGSGTDFTLTIDPVKADDITNYYCQQSNELPYTFGAGTKLELKR
# notes: Rat IgG2b, kappa; also called 04-079 antibody
# B2: rat anti-GPR20 antibody 04-126 (antibody, rat IgG2b, V domains shown)
# VH: B1 VH with Q5R, T35I, I37M, T41A, K46Q, I48V, A100T
# VL: B1 VL with N52T, K78E, T83A
# notes: Rat IgG2b, kappa; also called 04-126 antibody; 04-0126
# B3: rat anti-GPR20 antibody 04-046 (antibody, rat IgG2b)
# heavy: QVQLQQSGAELAKPGSSVKISCKASGYTFTSYYISWIKQTTGQGLKYIGFINPGSGHTNYNEKFKGKATLTVDKSSSTAFMQLSSLTPDDSAIYYCARGAGGFLRIITKFDYWGQGVMVTVSSAQTTAPSVYPLAPGCGDTTSSTVTLGCLVKGYFPEPVTVTWNSGALSSDVHTFPAVLQSGLYTLTSSVTSSTWPSQTVTCNVAHPASSTKVDKKVERRNGGIGHKCPTCPTCHKCPVPELLGGPSVFIFPPKPKDILLISQNAKVTCVVVDVSEEEPDVQFSWFVNNVEVHTAQTQPREEQYNSTFRVVSALPIQHQDWMSGKEFKCKVNNKALPSPIEKTISKPKGLVRKPQVYVMGPPTEQLTEQTVSLTCLTSGFLPNDIGVEWTSNGHIEKNYKNTEPVMDSDGSFFMYSKLNVERSRWDSRAPFVCSVVHEGLHNHHVEKSISRPPGK
# light: DTVLTQSPALAVSLGQRVTISCRASKSVSTYIHWYQQRSGQQPKLLIYSASNLESGVPSRFSGSGSGTDFTLTIDPVEPDDIANYYCQQINELPYTFGAGTKLELKRADAAPTVSIFPPSTEQLATGGASVVCLMNNFYPRDISVKWKIDGTERRDGVLDSVTDQDSKDSTYSMSSTLSLTKADYESHNLYTCEVVHKTSSSPVVKSFNRNEC
# notes: Rat IgG2b, kappa; also called 04-046 antibody
# B4: humanized h046-H4b/L7 (antibody, human IgG1, kappa)
# heavy: not shown
# light: DTQLTQSPSSLSASVGDRVTITCRASKSVSTYIHWYQQKPGKQPKLLIYSAGNLESGVPSRFSGSGSGTDFTLTISSLQPEDFANYYCQQINELPYTFGQGTKVEIKRTVAAPSVFIFPPSDEQLKSGTASVVCLLNNFYPREAKVQWKVDNALQSGNSQESVTEQDSKDSTYSLSSTLTLSKADYEKHKVYACEVTHQGLSSPVTKSFNRGEC
# notes: Humanized IgG1 / kappa
# B5: antibody-drug conjugate h046-H4b/L7-ADC1 (antibody, human IgG1, kappa)
# heavy: not shown
# light: B4 light
# modifications: ADC1 exatecan drug linker on the interchain-disulfide cysteine, thioether bond; position not given; ADC1 exatecan drug linker (maleimidocaproyl-GGFG-NH-CH2-O-CH2-C(=O)-(NH-DX)) on cysteine sulfhydryls of reduced interchain disulfides, thioether bond; positions not given
# notes: also called antibody-drug conjugate (3); antibody-drug conjugate (4)
# B6: antibody-drug conjugate (7) h046-H4b/L7-ADC2 (antibody, human IgG1, kappa)
# heavy: not shown
# light: B4 light
# modifications: ADC2 exatecan drug linker on the interchain-disulfide cysteine, thioether bond; position not given; ADC2 exatecan drug linker (maleimide-PEG2-GGFG-NH-CH2CH2CH2-C(=O)-(NH-DX)) on cysteine sulfhydryls of reduced interchain disulfides, thioether bond; positions not given
# notes: average drug number 6.1 (E) / 7.6 (F)
# B7: humanized h046-H5b/L2 (antibody, human IgG1, kappa, V domains shown)
# VH: QVQLVQSGAEVKKPGASVKVSCKASGYTFTSYYISWIRQAPGQGLKYMGFINPGSGHTNYNEKFKGRVTITADKSSSTANMELSSLRSEDTAVYYCARGAGGFLRIITKFDYWGQGTLVTVSS
# VL: DIQMTQSPSSLSASVGDRVTITCRASKSVSTYIHWYQQKPGKQPKLLIYSASNLESGVPSRFSGSGSGTDFTLTISSLQPEDFATYYCQQINELPYTFGQGTKVEIKR
# notes: Humanized IgG1 / kappa
# B8: antibody-drug conjugate (5) h046-H5b/L2-ADC1 (antibody, human IgG1, kappa, V domains shown)
# VH: B7 VH
# VL: B7 VL
# modifications: ADC1 exatecan drug linker on the interchain-disulfide cysteine, thioether bond; position not given; ADC1 exatecan drug linker (maleimidocaproyl-GGFG-NH-CH2-O-CH2-C(=O)-(NH-DX)) on cysteine sulfhydryls of reduced interchain disulfides, thioether bond; positions not given
# notes: average drug number 5.4 (E) / 7.9 (F)
# B9: antibody-drug conjugate (8) h046-H5b/L2-ADC2 (antibody, human IgG1, kappa, V domains shown)
# VH: B7 VH
# VL: B7 VL
# modifications: ADC2 exatecan drug linker on the interchain-disulfide cysteine, thioether bond; position not given; ADC2 exatecan drug linker (maleimide-PEG2-GGFG-NH-CH2CH2CH2-C(=O)-(NH-DX)) on cysteine sulfhydryls of reduced interchain disulfides, thioether bond; positions not given
# notes: average drug number 6.0 (E) / 7.7 (F)
# B10: antibody-drug conjugate h046-H4e/L7-ADC1 (antibody, human IgG1, kappa)
# heavy: not shown
# light: B4 light
# modifications: ADC1 exatecan drug linker on the interchain-disulfide cysteine, thioether bond; position not given; ADC1 exatecan drug linker (maleimidocaproyl-GGFG-NH-CH2-O-CH2-C(=O)-(NH-DX)) on cysteine sulfhydryls of reduced interchain disulfides, thioether bond; positions not given
# notes: also called antibody-drug conjugate (13); antibody-drug conjugate (14)
# B11: humanized h046-H4e/L7 (antibody, human IgG1, kappa)
# heavy: not shown
# light: B4 light
# notes: Humanized IgG1 / kappa
# B12: antibody-drug conjugate (12) h046-H10/L6-ADC1 (antibody, human IgG1, kappa, V domains shown)
# VH: B1 VH with I20V, T35S, Y50F, F80N, V93I, S108T
# VL: B7 VL with I2T, M4L, N53D, L54R, T85N
# modifications: ADC1 exatecan drug linker on the interchain-disulfide cysteine, thioether bond; position not given; ADC1 exatecan drug linker (maleimidocaproyl-GGFG-NH-CH2-O-CH2-C(=O)-(NH-DX)) on cysteine sulfhydryls of reduced interchain disulfides, thioether bond; positions not given
# notes: average drug number 5.5 (E) / 8.0 (F)
# B13: humanized h046-H10/L6 (antibody, human IgG1, kappa, V domains shown)
# VH: B1 VH with I20V, T35S, Y50F, F80N, V93I, S108T
# VL: B7 VL with I2T, M4L, N53D, L54R, T85N
# notes: the claims and summary say 20 to 474
# B14: antibody-drug conjugate (1) 046Ch-ADC2 (antibody, human IgG1)
# heavy: not shown
# light: DTVLTQSPALAVSLGQRVTISCRASKSVSTYIHWYQQRSGQQPKLLIYSASNLESGVPSRFSGSGSGTDFTLTIDPVEPDDIANYYCQQINELPYTFGAGTKLELKRAVAAPSVFIFPPSDEQLKSGTASVVCLLNNFYPREAKVQWKVDNALQSGNSQESVTEQDSKDSTYSLSSTLTLSKADYEKHKVYACEVTHQGLSSPVTKSFNRGEC
# modifications: ADC2 exatecan drug linker on the interchain-disulfide cysteine, thioether bond; position not given; ADC2 exatecan drug linker (maleimide-PEG2-GGFG-NH-CH2CH2CH2-C(=O)-(NH-DX)) on cysteine sulfhydryls of reduced interchain disulfides, thioether bond; positions not given
# notes: average drug number per antibody 5.6 (procedure E)
# B15: antibody-drug conjugate (2) 046Ch-ADC1 (antibody, human IgG1)
# heavy: not shown
# light: B14 light
# modifications: ADC1 exatecan drug linker on the interchain-disulfide cysteine, thioether bond; position not given; ADC1 exatecan drug linker (maleimidocaproyl-GGFG-NH-CH2-O-CH2-C(=O)-(NH-DX)) on cysteine sulfhydryls of reduced interchain disulfides, thioether bond; positions not given
# notes: as for B14
# Target: GPR20-EGFP protein comprising human GPR20 linked at its C-terminus to EGFP (human, UniProt Q99678 1-358)
# Sequence (Q99678 whole entry): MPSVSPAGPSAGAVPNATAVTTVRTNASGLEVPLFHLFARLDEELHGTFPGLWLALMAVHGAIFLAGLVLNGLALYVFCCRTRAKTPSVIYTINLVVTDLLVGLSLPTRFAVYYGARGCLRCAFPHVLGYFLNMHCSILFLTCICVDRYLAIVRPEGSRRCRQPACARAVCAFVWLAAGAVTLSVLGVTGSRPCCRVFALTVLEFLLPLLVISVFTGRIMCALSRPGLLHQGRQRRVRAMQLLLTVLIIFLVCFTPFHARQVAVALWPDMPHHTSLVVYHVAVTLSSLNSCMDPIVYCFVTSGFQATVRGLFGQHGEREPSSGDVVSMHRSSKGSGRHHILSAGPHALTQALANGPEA
# Assay: cell-based or functional assay
row,Binder,Cell survival rate (%) in internalization activity evaluation
1,B1,62%
2,B2,54%
3,B3,57%

# Target: T1, human GPR20 (human, UniProt Q99678 1-358)
# T1 construct: 358 amino acids, NCBI NP_005284; also called hGPR20; human GPR20 protein (NP_005284)
# T1 sequence (Q99678 whole entry): as above
# Assay: flow cytometry on 293T cells transfected with pcDNA3.1-hGPR20
# Method: The cells were cultured overnight under conditions of 37° C. and 5% CO₂, and thereafter, a cell suspension was prepared. To the obtained cell suspension, each humanized anti-GPR20 antibody was added, and the obtained mixture was left standing at 4° C. for 1 hour. […] The cells were left standing at 4° C. for 1 hour. The cells were washed twice with PBS supplemented with 5% FBS, and then re-suspended in PBS supplemented with 5% FBS, followed by detection using a flow cytometer (BD FACSCant II; BD Biosciences). The data was analyzed using Flowjo (Tree Star, Inc.). […] In the histograms of FIG. 24, the abscissa depicts the fluorescence intensity of PE indicating the amount of the antibody bound, and the ordinate depicts a cell count.
row,Binder,binding result
1,B4,binds
2,B5,binds
3,B6,binds
4,B7,binds
5,B8,binds
6,B9,binds
7,B10,binds
8,B11,binds
9,B12,binds
10,B13,binds
11,B14,binds
12,B15,binds

# Target: T2, mouse GPR20 (mouse, UniProt Q8BYC4 1-358)
# T2 construct: whole, on cells; also called mGPR20; mouse GPR20 (NP_775541)
# T2 sequence (Q8BYC4 whole entry): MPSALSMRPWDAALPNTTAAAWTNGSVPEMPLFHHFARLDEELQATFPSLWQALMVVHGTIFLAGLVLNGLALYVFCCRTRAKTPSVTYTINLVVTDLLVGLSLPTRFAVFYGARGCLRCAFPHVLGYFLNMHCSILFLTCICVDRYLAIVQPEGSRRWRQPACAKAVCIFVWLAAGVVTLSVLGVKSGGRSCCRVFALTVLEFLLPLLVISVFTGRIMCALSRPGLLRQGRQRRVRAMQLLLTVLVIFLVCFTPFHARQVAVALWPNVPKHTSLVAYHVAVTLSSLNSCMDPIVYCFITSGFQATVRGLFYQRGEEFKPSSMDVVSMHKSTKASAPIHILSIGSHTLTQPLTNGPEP
# Assay: Cell-ELISA on 293a cells transiently expressing mouse GPR20
# Method: (§1) The cells were left standing at 4° C. for 1 hour. […] The cells were left standing at 4° C. for 1 hour. The cells in the wells were washed three times with PBS (+) supplemented with 5% FBS, and thereafter, OPD chromogenic solution (which had been prepared by dissolving o-phenylenediamine dihydrochloride (Wako Pure Chemical Industries, Ltd.) and H₂O₂ in an OPD solution (0.05 M trisodium citrate, 0.1 M disodium hydrogen phosphate 12-water; pH 4.5), so that the substances became 0.4 mg/ml and 0.6% (v/v), respectively) was added in an amount of 100 μL/well to the wells. A coloring reaction was carried out with occasional stirring. Thereafter, 1 M HCl was added to the plate (100 μL/well) to terminate the coloring reaction, followed by measurement of the absorbance at 490 nm using a plate reader (ENVISION: PerkinElmer, Inc.).
row,Binder,binding result
1,B1,no binding
2,B2,no binding
3,B3,no binding

# Target: T1, human GPR20
# Assay: cell-based or functional assay
row,Binder,cell proliferation suppression rate (Rat-ZAP internalization screening)
1,B1,≥ 60%
2,B2,≥ 60%
3,B3,≥ 60%

# Target: T3, human/mouse chimeric GPR20 in which EC2 of human GPR20 was substituted with EC2 of mouse GPR20 (human, UniProt Q99678 1-358)
# T3 construct: also called hGPR20_mECD2
# T3 sequence (Q99678 other isoform, or with tags, fused parts or gaps mutant): as the sequence (Q99678 whole entry) above, with Y113F counted along it
# Assay: Cell-ELISA on 293a cells transiently expressing hGPR20_mECD2
# Method: as §1
row,Binder,binding result
1,B1,no binding
2,B2,no binding
3,B3,no binding
